Source: patent publication US11857609B2, “Ocular delivery of cell permeant therapeutics for the treatment of retinal edema” (The Trustees of Columbia University in the City of New York, dated 2024)

Key:
[1] = molecular target: T1, activated (cleaved) caspase-9 from mouse retina (mouse, UniProt Q8C3Q9); assay: co-immunoprecipitation from mouse retina lysates after RVO and Pen1-XBIR3: anti-His IP, western blot for clCasp9, 24 h
Excerpt: (§1) To show target engagement, after RVO, mice were given Penl-XBIR3 and retinas were harvested and immunoprecipitated with anti-His followed by western blot for clCasp9 (FIG. 5, right panel).

[2] = molecular target: T1, activated (cleaved) caspase-9 from …; assay: co-immunoprecipitation from mouse retina lysates after RVO and Pen1-XBIR3: anti-His IP, western blot for clCasp9, 4 h
Excerpt: as §1

B1: Penetratin1-XBIR3 conjugate (other)
chain 1: CRQIKIWFQNRRMKWKK
chain 2: MGSSHHHHHHSSGLVPRGSHMSTNTCLPRNPSMADYEARIFTFGTWIYSVNKEQLARAGFYTDWALGEGDKVKCFHCGGGLRPSEDPWEQHARWYPGCRYLLEQRGQEYINNIHLTHS
modifications: N-terminal C(NPys) as printed; linked to XBIR3 by a disulfide bond (-s-s-); linked to Penetratin1 by a disulfide bond
fold increase in binding [1]: 45 fold
fold increase in binding [2]: 21 fold
